Experimental data: US20210322511A1 (Harvard, published 2021)

What was measured:
[1] = molecular target: the molecule itself; assay: non-reducing SDS-PAGE, disulfide-linked homodimer
Method: Fractions of the last SEC were analyzed by SDS-PAGE and Coomassie-blue staining. The position of SP-B is indicated by an arrow.
The extract was subjected to chromatography on a Sepharose LH-20 column to remove phospholipids. Protein fractions were dried, dissolved in the detergent octylglucoside, and further purified by size-exclusion chromatography (SEC).

[2] = molecular target: the molecule itself; assay: SEC, then non-reducing and reducing SDS-PAGE

B1: SP-BM purified from bovine lungs (other, UniProt P15781 188-266, looked up)
chain: FPIPIPYCWLCRTLIKRIQAVIPKGVLAMTVAQVCHVVPLLVGGICQCLVERYSVILLDTLLGRMLPQLVCGLVLRCSS
modifications: monomers disulfide-linked through Cys48
notes: domain: SP-BM; also called bovine SP-BM; mature SP-B
binding result [1]: binds

B2: recombinant human SP-BM (other)
chain: PIPLPYCWLCRALIKRIQAMIPKGALAVAVAQVCRVVPLVAGGICQCLAERYSVILLDTLLGRMLPQLVCRLVLRCSM
modifications: inter-molecular disulfide bond in the dimer
notes: also called recombinant SP-BM
binding result [2]: binds
